Experimental data as given in publication PMC7086702.

Molecular target: Groundnut bud necrosis virus nucleocapsid (N) protein, full-length, hexa-histidine-tagged (Groundnut bud necrosis virus, strain GBNV-To(K))
Assay: SEC

Question: “Groundnut bud necrosis virus nucleocapsid (N) protein, full-length, hexa-histidine-tagged (natural protein)” was tested. Which stoichiometry N did it give?
Answer: The stoichiometry N was 4.
